The target of experiment [1] is T1, full-length human CHMP1B with a single cysteine mutation at position 2 (CHMP1B^S2C) (human) (UniProt Q7LBR1).
T1 sequence: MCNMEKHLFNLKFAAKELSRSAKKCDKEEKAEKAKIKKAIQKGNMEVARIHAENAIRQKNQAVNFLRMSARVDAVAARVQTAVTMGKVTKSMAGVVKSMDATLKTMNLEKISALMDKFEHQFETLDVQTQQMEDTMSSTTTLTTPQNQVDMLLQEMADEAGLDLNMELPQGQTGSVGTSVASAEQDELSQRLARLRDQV

A further experiment deals with T2, full-length CHMP2A (UniProt O43633).
T2 sequence: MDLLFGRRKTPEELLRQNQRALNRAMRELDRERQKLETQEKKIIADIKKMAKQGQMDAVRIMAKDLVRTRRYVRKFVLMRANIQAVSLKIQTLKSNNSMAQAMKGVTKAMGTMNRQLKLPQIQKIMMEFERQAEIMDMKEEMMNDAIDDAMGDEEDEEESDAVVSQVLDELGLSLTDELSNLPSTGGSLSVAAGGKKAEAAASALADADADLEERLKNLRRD

B1: Human VPS4B with a single mutation at position 2 for maleimide fluorophore labeling (VPS4B^S2C) (enzyme)
chain: MCSTSPNLQKAIDLASKAAQEDKAGNYEEALQLYQHAVQYFLHVVKYEAQGDKAKQSIRAKCTEYLDRAEKLKEYLKNKEKKAQKPVKEGQPSPADEKGNDSDGEGESDDPEKKKLQNQLQGAIVIERPNVKWSDVAGLEGAKEALKEAVILPIKFPHLFTGKRTPWRGILLFGPPGTGKSYLAKAVATEANNSTFFSISSSDLVSKWLGESEKLVKNLFQLARENKPSIIFIDEIDSLCGSRSENESEAARRIKTEFLVQMQGVGVDNDGILVLGATNIPWVLDSAIRRRFEKRIYIPLPEPHARAAMFKLHLGTTQNSLTEADFRELGRKTDGYSGADISIIVRDALMQPVRKVQSATHFKKVRGPSRADPNHLVDDLLTPCSPGDPGAIEMTWMDVPGDKLLEPVVSMSDMLRSLSNTKPTVNEHDLLKLKKFTEDFGQEG
modifications: LD655 maleimide dye on the cysteine introduced at position 2 (labelled during the purification)
Regarding B1, the rate of ATP hydrolysis by VPS4B (malachite green; 0.2 uM enzyme, 2 uM ESCRT-III subunit, 2 mM ATP, 10 min, 37 °C) (ATP/VPS4B·min) in experiment [1] is 3.4; with full-length CHMP2A, 12.7.

These data come from PMC9303997.
